The values below come from patent US9765127.

The test addresses porcine pancreatic secretory PLA2 enzyme (sPLA2 1B) (porcine) (UniProt P00592). Nature of the test: cell-based or functional assay.
UniProt P00592, sequence (P00592 23-146): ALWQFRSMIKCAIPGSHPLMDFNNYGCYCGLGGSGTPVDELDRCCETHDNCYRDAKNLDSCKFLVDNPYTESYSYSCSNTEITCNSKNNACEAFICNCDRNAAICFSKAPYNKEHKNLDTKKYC

Substance “recombinant human SCGB3A2 with N-terminus ATA (from UniProt Q96PL1 19-93)” displayed a % inhibition of sPLA2-1B activity (fluorescent HPLC assay, cleavage of UNIBIPY substrate) of 83%.
